This passage reports Kd, koff and kon results from publication PMC7661507.

pKd: −log10 of the molar value.

Assay [1] concerns the target recombinant wild-type human histone H1.0 (unlabeled) (human). The experiment in a line: single-molecule FRET; competition titration, freely diffusing molecules; constant 50 pM labeled ProTα and unlabeled H1 (1 to 50 nM), unlabeled ProTα varied; TBS, 165 mM ionic strength.
For assay [2] the target is unchanged. The experiment in a line: single-molecule FRET; competition titration, freely diffusing molecules; constant 50 pM labeled ProTα and unlabeled H1 (1 to 50 nM), unlabeled ProTα varied; TBS, 230 mM ionic strength.
For assay [3], the target named is H1 V104C/G194C labeled with Alexa Fluor 488/594 (human). The experiment in a line: single-molecule FRET; freely diffusing molecules; labeled protein titrated with the unlabeled partner (labeled ProTα with unlabeled H1, labeled H1 with unlabeled ProTα); TBS, 208 mM ionic strength.
Assay [4] has as its target 1:1 complex of ProTα E56C/D110C Alexa488/594 and unlabeled H1 (human). Put plainly: single-molecule FRET; freely diffusing molecules; unlabeled H1 titrated to 50 pM labeled ProTα fully saturated with unlabeled H1 (PH + H ⇌ PHH); TBS, 18 mM ionic strength.
The target in assay [5] is ProTα E56C/D110C labeled with Alexa Fluor 488/594 (human). The experiment in a line: single-molecule FRET; freely diffusing molecules; 50 pM labeled ProTα titrated with unlabeled H1; TBS (10 mM Tris, 0.1 mM EDTA, KCl), 140 mM β-mercaptoethanol, 0.01% Tween 20; 165 mM ionic strength.
Assay [6] has the same target. Put plainly: single-molecule FRET; freely diffusing molecules; 50 pM labeled ProTα titrated with unlabeled H1; TBS, 330 mM ionic strength.
The target of assay [7] is 1:1 complex of ProTα E56C/D110C Alexa488/594 and unlabeled H1 (human). The experiment in a line: single-molecule FRET; freely diffusing molecules; unlabeled H1 titrated to 50 pM labeled ProTα fully saturated with unlabeled H1 (PH + H ⇌ PHH); TBS, 33 mM ionic strength.
The target is the same in assay [8]. Put plainly: single-molecule FRET; freely diffusing molecules; unlabeled H1 titrated to 50 pM labeled ProTα fully saturated with unlabeled H1 (PH + H ⇌ PHH); TBS, 43 mM ionic strength.
Assay [9] has the same target. Put plainly: single-molecule FRET; freely diffusing molecules; unlabeled H1 titrated to 50 pM labeled ProTα fully saturated with unlabeled H1 (PH + H ⇌ PHH); TBS, 13 mM ionic strength.
The target of assay [10] is ProTα E56C/D110C labeled with Alexa Fluor 488/594 (human). Put plainly: single-molecule FRET; freely diffusing molecules; 50 pM labeled ProTα titrated with unlabeled H1; TBS, 290 mM ionic strength.
In assay [11] the target is 1:1 complex of ProTα E56C/D110C Alexa488/594 and unlabeled H1 (human). The experiment in a line: single-molecule FRET; rate coefficient of PH + H ⇌ PHH at 200 mM ionic strength; KD extrapolated from lower ionic strengths, kon^PHH assumed equal to kon^PPH.
For assay [12], the target named is Avi-ProTα E56C/D110C, biotinylated, labeled with Cy3B/LD650 (human). The experiment in a line: single-molecule FRET; freely diffusing molecules; 50 pM labeled ProTα titrated with unlabeled H1; TBS, 200 mM ionic strength.
Assay [13] addresses ProTα E55C/D109C labeled with Alexa Fluor 488/594 (human). Described as above.
Assay [14] concerns the target Avi-ProTα E56C/D110C, biotinylated, labeled with Cy3B/LD650 (human). The experiment in a line: single-molecule FRET; biotinylated Avi-ProTα immobilised on a PEG/neutravidin surface, unlabeled H1 in solution; two-state model of time traces; TBS in D2O, 230 mM ionic strength.
Assay [15] concerns the target 1:1 complex of ProTα E56C/D110C Alexa488/594 and unlabeled H1 (human). Put plainly: single-molecule FRET; freely diffusing molecules; unlabeled H1 titrated to 50 pM labeled ProTα fully saturated with unlabeled H1 (PH + H ⇌ PHH); TBS, 58 mM ionic strength.
The target is the same in assay [16]. The experiment in a line: single-molecule FRET; freely diffusing molecules; unlabeled H1 titrated to 50 pM labeled ProTα fully saturated with unlabeled H1 (PH + H ⇌ PHH); TBS, 83 mM ionic strength.
Assay [17] deals with ProTα E56C/D110C labeled with Alexa Fluor 488/594 (human). The experiment in a line: single-molecule FRET; freely diffusing molecules; 50 pM labeled ProTα titrated with unlabeled H1; TBS, 240 mM ionic strength.
Assay [18] concerns the target Avi-ProTα E56C/D110C, biotinylated, labeled with Cy3B/LD650 (human). The experiment in a line: single-molecule FRET; biotinylated Avi-ProTα immobilised on a PEG/neutravidin surface, unlabeled H1 in solution; two-state model of time traces; TBS in D2O, 275 mM ionic strength.
For assay [19] the target is unchanged. Put plainly: single-molecule FRET; biotinylated Avi-ProTα immobilised on a PEG/neutravidin surface, unlabeled H1 in solution; two-state model of time traces; TBS in D2O, 230 mM ionic strength. The source holds these as a separate data set.
In assay [20] the target is ProTα S1C/E55C labeled with Alexa Fluor 488/594 (human). Put plainly: single-molecule FRET; freely diffusing molecules; labeled protein titrated with the unlabeled partner (labeled ProTα with unlabeled H1, labeled H1 with unlabeled ProTα); TBS, 208 mM ionic strength.
Assay [21] deals with ProTα S1C/D109C labeled with Alexa Fluor 488/594 (human). The assay is described as above.
Assay [22] concerns the target ProTα E55C/D109C labeled with Alexa Fluor 488/594 (human). The description is as above.
For assay [23], the target named is ProTα E56C/D110C labeled with Atto 550/647N (human). Described as above.
Assay [24] has as its target ProTα E56C/D110C labeled with Cy3B/Abberior STAR635 (human). The description is as above.
Assay [25] addresses ProTα S1C/D110C labeled with Alexa Fluor 488/594 (human). The description is as above.
The target in assay [26] is ProTα E56C/D110C labeled with Alexa Fluor 488/594 (human). Described as above.
The target in assay [27] is 1:1 complex of ProTα E56C/D110C Alexa488/594 and unlabeled H1 (human). Put plainly: single-molecule FRET; freely diffusing molecules; unlabeled H1 titrated to 50 pM labeled ProTα fully saturated with unlabeled H1 (PH + H ⇌ PHH); TBS, 23 mM ionic strength.
The target of assay [28] is Avi-ProTα E56C/D110C, biotinylated, labeled with Cy3B/LD650 (human). The experiment in a line: single-molecule FRET; biotinylated Avi-ProTα immobilised on a PEG/neutravidin surface, unlabeled H1 in solution; two-state model of time traces; TBS in D2O, 275 mM ionic strength. This is another data set of the same source.
The target of assay [29] is 1:1 complex of ProTα E56C/D110C Alexa488/594 and unlabeled H1 (human). Put plainly: single-molecule FRET; freely diffusing molecules; unlabeled H1 titrated to 50 pM labeled ProTα fully saturated with unlabeled H1 (PH + H ⇌ PHH); TBS, 8 mM ionic strength.
The target in assay [30] is ProTα E56C/D110C labeled with Alexa Fluor 488/594 (human). Put plainly: single-molecule FRET; freely diffusing molecules; 50 pM labeled ProTα titrated with unlabeled H1; TBS, 340 mM ionic strength.
Assay [31] shares this target. The experiment in a line: single-molecule FRET; freely diffusing molecules; 50 pM labeled ProTα titrated with unlabeled H1; TBS, 180 mM ionic strength.
Assay [32] shares this target. Put plainly: stopped-flow fluorescence; 2 nM labeled ProTα mixed with different concentrations of H1; TBS, 165 mM ionic strength; fit with kex = kon cH + KD kon.

Chain of recombinant wild-type human histone H1.0 (unlabeled) (natural protein) (P07305 2-194): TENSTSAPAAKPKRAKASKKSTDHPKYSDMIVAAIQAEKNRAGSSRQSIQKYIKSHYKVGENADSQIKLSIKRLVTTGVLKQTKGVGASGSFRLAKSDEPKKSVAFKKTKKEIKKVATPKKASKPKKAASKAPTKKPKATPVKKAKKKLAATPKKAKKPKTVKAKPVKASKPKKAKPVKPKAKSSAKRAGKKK
Chain of recombinant wild-type human histone H1.0 (unlabeled) (human) (P07305 2-194): as above

Regarding “ProTα (unlabeled & NMR) (natural protein)”, the pKd in [1] is 11.24; in assay [2], 8.19; in assay [3] it was 8.46.
“recombinant wild-type human histone H1.0 (unlabeled) (natural protein)”: the pKd was 6.15 in [4]; 11.68 in assay [5]; 5.85 in assay [6]; 5.88 in [7]; 5.74 in assay [8]; 6.27 in assay [9]. For the same substance, the pKd in assay [10] was 6.64; in assay [12] it was 8.95; in assay [13] it was 9.29; in assay [15] it was 5.55; in [16], 5.39; in [17], 7.60. Moreover, the pKd was 8.70 in [19]; 8.89 in assay [20]; 8.64 in assay [21]; 8.89 in assay [22]; 8.51 in [23]; 9.00 in [24]. Also, the pKd in assay [25] is 8.70; in assay [26], 9.00; in assay [27] it was 6.27; in assay [28], 7.23; in assay [29], 6.70; in assay [30], 5.40. The same substance gave a negative logarithm of the Kd (pKd) in assay [31] of 10.43. The koff in [11] was 6000 s⁻¹; in [19] it was 2.8 s⁻¹; in assay [28], 59 s⁻¹; in assay [32] it was 0.006 s⁻¹. Besides, the kon is 1.4e+09 M⁻¹ s⁻¹ in [14]; 1.01e+09 M⁻¹ s⁻¹ in assay [18]; 3.1e+09 M⁻¹ s⁻¹ in [19]; 3.1e+09 M⁻¹ s⁻¹ in [28]; 3.5e+09 M⁻¹ s⁻¹ in assay [32].

Broadly, the pKd is the Kd on a negative log10 scale, so that one unit is a factor of ten. As usually defined, the koff is a measure of how fast the partners let go of each other. As usually defined, the kon is a measure of how fast the partners come together.
